System: Escherichia coli TOP10
Assay: shrunken log2 fold change of peptide-encoding DNA abundance (4.5 h post-induction vs induction); higher = less antimicrobial activity (less host growth inhibition)
Settings: time post-induction: 4.5 h; library: site-saturation at positions 5, 18, 19, 20
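Also: peptides expressed intracellularly from a pBAD plasmid library in pooled LB shake-flask culture, induced with 0.3% L-arabinose, DNA abundance read by NGS, three biological replicates, DESeq2 with apeglm shrinkage.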

Row | Sequence | shrunken log2 fold change
1 | RRIRCRPPRLPRPRPRPAYCPRP | -0.363
2 | RRIRCRPPRLPRPRPRPAYYPRP | -0.476
3 | RRIRCRPPRLPRPRPRPCAQPRP | 0.101
4 | RRIRCRPPRLPRPRPRPCDDPRP | 0.0119
5 | RRIRCRPPRLPRPRPRPCDFPRP | -0.0328
6 | RRIRCRPPRLPRPRPRPCDVPRP | -0.0285
7 | RRIRCRPPRLPRPRPRPCEEPRP | 0.207
8 | RRIRCRPPRLPRPRPRPCEYPRP | -0.163
9 | RRIRCRPPRLPRPRPRPCGGPRP | 0.113
10 | RRIRCRPPRLPRPRPRPCHHPRP | -0.332
11 | RRIRCRPPRLPRPRPRPCHSPRP | -1.91
12 | RRIRCRPPRLPRPRPRPCIVPRP | -0.718
13 | RRIRCRPPRLPRPRPRPCKPPRP | -0.216
14 | RRIRCRPPRLPRPRPRPCMVPRP | -0.587
15 | RRIRCRPPRLPRPRPRPCMWPRP | -0.124
16 | RRIRCRPPRLPRPRPRPCNFPRP | -0.0198
17 | RRIRCRPPRLPRPRPRPCNHPRP | -0.227
18 | RRIRCRPPRLPRPRPRPCPWPRP | -0.0714
19 | RRIRCRPPRLPRPRPRPCTDPRP | 0.0806
20 | RRIRCRPPRLPRPRPRPCVMPRP | -0.0643
21 | RRIRCRPPRLPRPRPRPCWVPRP | -0.4
22 | RRIRCRPPRLPRPRPRPCYCPRP | -0.399
23 | RRIRCRPPRLPRPRPRPCYLPRP | -0.684
24 | RRIRCRPPRLPRPRPRPCYMPRP | -0.234
25 | RRIRCRPPRLPRPRPRPDCEPRP | -0.0299

Row | Sequence | shrunken log2 fold change
26 | RRIRCRPPRLPRPRPRPDECPRP | -0.00243
27 | RRIRCRPPRLPRPRPRPDEPPRP | 0.189
28 | RRIRCRPPRLPRPRPRPDERPRP | -0.149
29 | RRIRCRPPRLPRPRPRPDEYPRP | -0.231
30 | RRIRCRPPRLPRPRPRPDFCPRP | -0.228
31 | RRIRCRPPRLPRPRPRPDFPPRP | 0.137
32 | RRIRCRPPRLPRPRPRPDGMPRP | -0.239
33 | RRIRCRPPRLPRPRPRPDGPPRP | 0.185
34 | RRIRCRPPRLPRPRPRPDIMPRP | -0.0409
35 | RRIRCRPPRLPRPRPRPDIYPRP | -0.174
36 | RRIRCRPPRLPRPRPRPDKCPRP | -0.325
37 | RRIRCRPPRLPRPRPRPDLAPRP | 0.102
38 | RRIRCRPPRLPRPRPRPDMDPRP | -0.00476
39 | RRIRCRPPRLPRPRPRPDNRPRP | -0.132
40 | RRIRCRPPRLPRPRPRPDPWPRP | -0.0438
41 | RRIRCRPPRLPRPRPRPDQCPRP | -0.00126
42 | RRIRCRPPRLPRPRPRPDQIPRP | -0.212
43 | RRIRCRPPRLPRPRPRPDRFPRP | 0.0616
44 | RRIRCRPPRLPRPRPRPDTLPRP | -0.96
45 | RRIRCRPPRLPRPRPRPDVLPRP | -0.489
46 | RRIRCRPPRLPRPRPRPDWPPRP | 0.187
47 | RRIRCRPPRLPRPRPRPDWWPRP | 0.256
48 | RRIRCRPPRLPRPRPRPDYAPRP | -0.278
49 | RRIRCRPPRLPRPRPRPDYQPRP | -0.447
50 | RRIRCRPPRLPRPRPRPDYVPRP | -1.26

Row | Sequence | shrunken log2 fold change
51 | RRIRCRPPRLPRPRPRPEANPRP | 0.477
52 | RRIRCRPPRLPRPRPRPECCPRP | 0.401
53 | RRIRCRPPRLPRPRPRPECVPRP | 0.588
54 | RRIRCRPPRLPRPRPRPEDAPRP | -0.0302
55 | RRIRCRPPRLPRPRPRPEEAPRP | 0.642
56 | RRIRCRPPRLPRPRPRPEECPRP | -0.0128
57 | RRIRCRPPRLPRPRPRPEEEPRP | 0.375
58 | RRIRCRPPRLPRPRPRPEHDPRP | -0.131
59 | RRIRCRPPRLPRPRPRPEHFPRP | -0.0319
60 | RRIRCRPPRLPRPRPRPEHWPRP | 0.118
61 | RRIRCRPPRLPRPRPRPEIMPRP | -0.0581
62 | RRIRCRPPRLPRPRPRPEKLPRP | -0.077
63 | RRIRCRPPRLPRPRPRPELCPRP | 0.488
64 | RRIRCRPPRLPRPRPRPEMEPRP | 0.00408
65 | RRIRCRPPRLPRPRPRPENAPRP | 0.117
66 | RRIRCRPPRLPRPRPRPEPDPRP | 0.307
67 | RRIRCRPPRLPRPRPRPEPGPRP | 0.364
68 | RRIRCRPPRLPRPRPRPEQAPRP | 0.219
69 | RRIRCRPPRLPRPRPRPEQHPRP | 0.0913
70 | RRIRCRPPRLPRPRPRPESLPRP | -0.11
71 | RRIRCRPPRLPRPRPRPETMPRP | -0.0663
72 | RRIRCRPPRLPRPRPRPEVIPRP | -0.083
73 | RRIRCRPPRLPRPRPRPEWTPRP | 0.154
74 | RRIRCRPPRLPRPRPRPEYPPRP | 0.0734
75 | RRIRCRPPRLPRPRPRPFCFPRP | -0.0725

Row | Sequence | shrunken log2 fold change
76 | RRIRCRPPRLPRPRPRPFDEPRP | -0.0888
77 | RRIRCRPPRLPRPRPRPFFSPRP | -0.242
78 | RRIRCRPPRLPRPRPRPFGPPRP | -0.283
79 | RRIRCRPPRLPRPRPRPFGQPRP | -0.442
80 | RRIRCRPPRLPRPRPRPFHIPRP | -1.96
81 | RRIRCRPPRLPRPRPRPFHTPRP | -0.0266
82 | RRIRCRPPRLPRPRPRPFIEPRP | 0.184
83 | RRIRCRPPRLPRPRPRPFNDPRP | 0.0223
84 | RRIRCRPPRLPRPRPRPFPNPRP | -0.0279
85 | RRIRCRPPRLPRPRPRPFQNPRP | -0.0078
86 | RRIRCRPPRLPRPRPRPFRIPRP | -0.128
87 | RRIRCRPPRLPRPRPRPFRMPRP | -0.113
88 | RRIRCRPPRLPRPRPRPFSQPRP | -0.209
89 | RRIRCRPPRLPRPRPRPFTPPRP | -0.497
90 | RRIRCRPPRLPRPRPRPFVAPRP | -0.159
91 | RRIRCRPPRLPRPRPRPFVTPRP | 0.663
92 | RRIRCRPPRLPRPRPRPFWCPRP | -0.397
93 | RRIRCRPPRLPRPRPRPFWIPRP | -0.513
94 | RRIRCRPPRLPRPRPRPFYRPRP | -0.313
95 | RRIRCRPPRLPRPRPRPGAEPRP | 0.239
96 | RRIRCRPPRLPRPRPRPGCDPRP | 0.258
97 | RRIRCRPPRLPRPRPRPGCLPRP | 0.115
98 | RRIRCRPPRLPRPRPRPGDDPRP | 0.745
99 | RRIRCRPPRLPRPRPRPGDRPRP | 0.0429
100 | RRIRCRPPRLPRPRPRPGEKPRP | 0.0653

Row | Sequence | shrunken log2 fold change
101 | RRIRCRPPRLPRPRPRPGFLPRP | -0.245
102 | RRIRCRPPRLPRPRPRPGFMPRP | -0.429
103 | RRIRCRPPRLPRPRPRPGFVPRP | 0.528
104 | RRIRCRPPRLPRPRPRPGHDPRP | -0.00827
105 | RRIRCRPPRLPRPRPRPGHNPRP | -0.385
106 | RRIRCRPPRLPRPRPRPGHSPRP | -0.347
107 | RRIRCRPPRLPRPRPRPGHTPRP | -0.128
108 | RRIRCRPPRLPRPRPRPGHYPRP | -0.0646
109 | RRIRCRPPRLPRPRPRPGKSPRP | 0.0822
110 | RRIRCRPPRLPRPRPRPGMNPRP | -0.131
111 | RRIRCRPPRLPRPRPRPGMVPRP | 0.0377
112 | RRIRCRPPRLPRPRPRPGNWPRP | 0.0422
113 | RRIRCRPPRLPRPRPRPGQQPRP | 0.0269
114 | RRIRCRPPRLPRPRPRPGRSPRP | 0.0654
115 | RRIRCRPPRLPRPRPRPGTRPRP | 0.139
116 | RRIRCRPPRLPRPRPRPHALPRP | -0.0688
117 | RRIRCRPPRLPRPRPRPHCWPRP | -0.0254
118 | RRIRCRPPRLPRPRPRPHDDPRP | -0.104
119 | RRIRCRPPRLPRPRPRPHELPRP | -0.336
120 | RRIRCRPPRLPRPRPRPHHCPRP | 0.00372
121 | RRIRCRPPRLPRPRPRPHHWPRP | -0.0852
122 | RRIRCRPPRLPRPRPRPHIMPRP | -1.4
123 | RRIRCRPPRLPRPRPRPHLNPRP | -0.627
124 | RRIRCRPPRLPRPRPRPHMDPRP | -0.329
125 | RRIRCRPPRLPRPRPRPHMFPRP | -0.348

Row | Sequence | shrunken log2 fold change
126 | RRIRCRPPRLPRPRPRPHMIPRP | -0.0573
127 | RRIRCRPPRLPRPRPRPHNKPRP | -0.75
128 | RRIRCRPPRLPRPRPRPHRSPRP | -0.114
129 | RRIRCRPPRLPRPRPRPHRTPRP | -0.209
130 | RRIRCRPPRLPRPRPRPHSIPRP | -0.101
131 | RRIRCRPPRLPRPRPRPHSQPRP | -0.0293
132 | RRIRCRPPRLPRPRPRPHWGPRP | 0.143
133 | RRIRCRPPRLPRPRPRPHWHPRP | -0.42
134 | RRIRCRPPRLPRPRPRPHWLPRP | -0.311
135 | RRIRCRPPRLPRPRPRPHWMPRP | -0.371
136 | RRIRCRPPRLPRPRPRPHYFPRP | -0.324
137 | RRIRCRPPRLPRPRPRPIAEPRP | 0.247
138 | RRIRCRPPRLPRPRPRPIGDPRP | -0.0014
139 | RRIRCRPPRLPRPRPRPIGHPRP | -0.312
140 | RRIRCRPPRLPRPRPRPIGKPRP | -0.188
141 | RRIRCRPPRLPRPRPRPIIHPRP | -0.799
142 | RRIRCRPPRLPRPRPRPIKAPRP | 0.0144
143 | RRIRCRPPRLPRPRPRPIKCPRP | -0.165
144 | RRIRCRPPRLPRPRPRPIKQPRP | -0.062
145 | RRIRCRPPRLPRPRPRPIKRPRP | -0.628
146 | RRIRCRPPRLPRPRPRPIMQPRP | -0.193
147 | RRIRCRPPRLPRPRPRPINYPRP | -0.271
148 | RRIRCRPPRLPRPRPRPIQRPRP | 0.0673
149 | RRIRCRPPRLPRPRPRPIRIPRP | 0.0952
150 | RRIRCRPPRLPRPRPRPIRMPRP | -0.339
